The source of these data is US7700318 (AMPROTEIN, dated 2010).

For the assay, the target named is T1, recombinant human IL-1 receptor extracellular domain (human, UniProt P14778 18-336).
T1 construct: extracellular domain; also called in-house mammalian recombinant IL-receptor extracellular domain
T1 sequence (looked up): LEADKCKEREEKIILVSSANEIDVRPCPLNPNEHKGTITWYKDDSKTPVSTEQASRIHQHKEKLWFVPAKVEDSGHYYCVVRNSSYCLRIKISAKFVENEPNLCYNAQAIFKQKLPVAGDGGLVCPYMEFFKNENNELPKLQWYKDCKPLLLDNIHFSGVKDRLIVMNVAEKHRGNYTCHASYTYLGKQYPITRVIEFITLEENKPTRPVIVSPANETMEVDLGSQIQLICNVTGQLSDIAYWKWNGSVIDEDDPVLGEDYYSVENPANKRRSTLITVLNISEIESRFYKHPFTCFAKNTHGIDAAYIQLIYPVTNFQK
The assay is described as follows: ELISA: test proteins coated on 96-well plate, IL-1 receptor extracellular domain incubated at 37 C, detected with rabbit anti human IL-1 receptor antibodies and goat anti rabbit HRP (FIG. 5). The procedure: For IL-1 receptor binding assay, recombinant human IL-1 receptor extracellular domain was first produced in house using a mammalian host. TNFRII-Fc-IL-1ra, negative control TNFRII-Fc and positive control IL-1ra (KINERET) have been coated to 96-well plate. IL-1 receptor is then incubated at 37° C. for binding. The binding is detected using rabbit anti human IL-1 receptor extracellular domain antibodies, followed by goat anti rabbit […] conjugated with HRP.
(An ELISA detects its analyte on a solid surface through an enzyme-linked reagent.)

B1: TNFRII-Fc (ENBREL) (Fc fusion, UniProt P20333 23-257, looked up)
chain: LPAQVAFTPYAPEPGSTCRLREYYDQTAQMCCSKCSPGQHAKVFCTKTSDTVCDSCEDSTYTQLWNWVPECLSCGSRCSSDQVETQACTREQNRICTCRPGWYCALSKQEGCRLCAPLRKCRPGFGVARPGTETSDVVCKPCAPGTFSNTTSSTDICRPHQICNVVAIPGNASMDAVCTSTSPTRSMAPGAVHLPQPVSTRSQHTQPTPEPSTAPSTSFLLPMGPSPPAEGSTGD
notes: Marketed product; also called marketed TNFRII-Fc (ENBREL); not shown: Fc part of the marketed product
For the molecule B1, the binding result is given as “no binding”.
